We go through twelve molecules from patent US20220242973A1 (Molecular Partners, published 2022).

To fix the notation:
B1: DARPin® protein #22 (designed binder)
chain: MRGSHHHHHHGSYPYDVPDYAGSDLGDKLLTAANYGQDDEVRILLAAGADVNAKDRFGHTPLHVAAHFGHLEIVEVLLKAGADVNAKDSLGHTPLHLAAEAGHLEIVEVLLKAGADVNAQDFHGITPADLAAHQGHEDIAEVLQKLN
B2: DARPin® protein #23 (designed binder)
chain: MRGSHHHHHHGSYPYDVPDYAGSDLGLKLLSAAQVGQDDEVRILLAAGADVNVKDQFGHTPLHVATHFGHLEIVEVLLKAGADVNAKDALGHTPLHLAAEAGHLEIVEVLLKAGADVNAQDAHGRTPADLAAQLGHEDIAEVLQKLN
B3: DARPin® protein #7 (designed binder)
chain: MRGSHHHHHHGSYPYDVPDYAGSDLGKKLLEAARAGQDDEVRELLKAGADVNAKDEWGKTPLHLAAALGHLEIVEVLLKAGADVNAKDAWGATPLHVAAFAGHLEIVEVLLKAGADVNAKDTIGFTPLHLAAHSGHLEIVEVLLKAGADVNAQDKSGKTPADLAADAGHEDIVEVLQKLN
B4: DARPin® protein #28 (designed binder)
chain: B3 chain with L64Y, A89R, V97I, T122E, I123V, F125W, H133R, A146V
B5: DARPin® protein #27 (designed binder)
chain: MRGSHHHHHHGSYPYDVPDYAGSDLGKKLLEAARAGQDDEVRELLKAGADVNAKDEWDKTPLHYAAALGHLEIVEVLLKAGADVNAKDVWGATPLHIAAFAGHLEIVEVLLKAGADVNAKDTLGYTPLHLAATRGHLEIVEALLKAGADVNAQDKSGKTPADLAADVGHEDIAEVLQKLN
B6: DARPin® protein #32 (designed binder)
chain: B3 chain with G58D, G69D, A89Q, W90Y, T122L, I123F, F125W, H133L, S134R
B7: DARPin® protein #24 (designed binder)
chain: MRGSHHHHHHGSYPYDVPDYAGSDLGEKLLEAARRGQDDEVRELLKAGADVNAKDRYGITPLHLAAFLGHLEIVEVLLKDGADVNAKDEWGATPLHVAAYKGHLEIVEVLLKAGADVNAQDLYGKTPADLAAEQGHEDIEEVLQKLN
B8: DARPin® protein #29 (designed binder)
chain: MRGSHHHHHHGSYPYDVPDYAGSDLGKKLLEAARAGQDDEVRELLKAGADVNAKDTIGRTPLHIAARYGHLEIVEVLLKAGADVNAKDVYDITPLHLAAFLGHLEIVEVLLKAGADVNAKDYEGTTPLHVAAWHGHLEIVEVLLKAGADVNAQDKSGKTPADLAADAGHEDIAEVLQKLN
B9: DARPin® protein #15 (designed binder)
chain: MRGSHHHHHHGSYPYDVPDYAGSDLGKKLLEAARAGQDDEVRILMANGADVNAFDAIGRTPLHLAALYGHLEIVEVLLKHVADVNATDEYGITPLHLAAFMGHLEIVEVLLKYGADVNAIDFDGRTPLHPAAYRGHLEIVEVLLKHGADVNAQDKFGKTAFDISIDNGNEDLAEILQKLN
B10: DARPin® protein #2 (designed binder)
chain: MRGSHHHHHHGSYPYDVPDYAGSDLGKKLLEAARAGQDDEVRILLAAGADINAKDKYGVTPLHLAAWAGHLEIVEVLLKAGADVNAKDQSGFTPLHLAAHRGHLEIVEVLLKAGADVNAKDYRGFTPLHLAAEDGHLEIVEVLLKAGADVNAQDKSGKTPADLAADAGHEDIAEVLQKLN
B11: DARPin® protein #21 (designed binder)
chain: MRGSHHHHHHGSYPYDVPDYAGSDLGQKLLNAAFIGQDDEVRILLAAGAGVNAKDRHGHTPLHVTAHHGHLEIVEVLLKAGTDVNAKDNQGNTPLHVAAEADHLEIVEVLLKAGADVNAQDAHGRTPADLAAQLGHEDIAEVLQKLN
B12: DARPin® protein #14 (designed binder)
chain: MRGSHHHHHHGSYPYDVPDYAGSDLGKKLLEAARAGQDDEVRILLAAGADVNAKDYSGRTPLHLAALTGHLEIVKVLLKHGADVNASDDYGITPLHLDAFIGHLEIVEVLLKNGADVNAMDYQGRTPLHPAAYTGHLEIVEVLLKYGADVNAQDKFGKTAFDISIDNGNEDLAEILQKLN

Where a chain is given by its changes, count along the chain named.

The first assay addresses T1, Recombinant human FAP (fibroblast activation protein) (human, UniProt Q12884 26-760).
T1 sequence (looked up): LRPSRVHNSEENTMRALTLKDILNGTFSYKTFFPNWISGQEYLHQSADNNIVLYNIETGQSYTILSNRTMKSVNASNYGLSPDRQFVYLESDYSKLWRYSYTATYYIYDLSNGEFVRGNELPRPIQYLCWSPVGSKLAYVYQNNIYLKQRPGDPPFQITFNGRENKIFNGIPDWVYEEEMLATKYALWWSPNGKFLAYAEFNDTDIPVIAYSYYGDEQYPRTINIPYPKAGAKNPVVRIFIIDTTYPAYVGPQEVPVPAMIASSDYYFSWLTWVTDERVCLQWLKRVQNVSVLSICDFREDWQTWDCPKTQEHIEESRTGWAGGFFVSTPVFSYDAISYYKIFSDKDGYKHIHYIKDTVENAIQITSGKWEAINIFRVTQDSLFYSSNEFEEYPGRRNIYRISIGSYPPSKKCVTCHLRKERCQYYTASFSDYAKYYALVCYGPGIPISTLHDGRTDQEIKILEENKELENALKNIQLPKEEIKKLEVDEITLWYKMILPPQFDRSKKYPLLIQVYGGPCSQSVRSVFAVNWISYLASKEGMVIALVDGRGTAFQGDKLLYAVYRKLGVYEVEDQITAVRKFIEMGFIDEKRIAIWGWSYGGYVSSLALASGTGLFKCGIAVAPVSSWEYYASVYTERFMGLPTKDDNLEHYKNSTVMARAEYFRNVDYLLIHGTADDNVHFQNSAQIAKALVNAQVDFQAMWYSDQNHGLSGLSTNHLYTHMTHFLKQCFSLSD
Put plainly: cell-based or functional assay.
Take B1: the “FAP activity (%)” value is 100%.
Consider B2, for which the “FAP activity (%)” value stood at 100%.
On the same count and under the same terms, then B3, with 123%.
The same measure, in the same setting: then B4, with 103%; and B5, with 110%.
As to B6, the “FAP activity (%)” value is 138%.
The same measure, in the same setting: then B7, with 102%; and B8, with 109%; and B9, with 93%.
For the molecule B10, the “FAP activity (%)” value worked out at 117%.
Consider B11, for which the “FAP activity (%)” value was found to be 108%.
Regarding B12, the “FAP activity (%)” value is 86%.

For a further assay, the target named is T1, Recombinant human FAP (fibroblast …). Put plainly: SPR (ProteOn), human FAP immobilized on GLC chip. As to the method:
Briefly, human FAP was diluted in 10 mM Na-acetate pH 5.3 buffer and covalently immobilized on a GLC chip (BioRad) to a level of around 2000 resonance units (RU). The interaction of ankyrin repeat protein and hFAP was then measured by injecting 200 μl running buffer (PBS, pH 7.4 containing 0.005% Tween 20®) containing serial dilutions of ankyrin repeat proteins covering a concentration range between 30 nM and 0.5 nM (on-rate measurement), followed by a running buffer flow for at least 25 minutes at a constant flow rate of 100 μl/min (off-rate measurement). The regeneration was performed using 15 μl of 10 mM Glycine pH 2 followed by 15 μl of 124 mM H₃PO₄. The signals (i.e. resonance unit (RU) values) of the interspots and a reference injection (i.e. injection of running buffer only) were subtracted from the RU traces obtained after injection of ankyrin repeat protein (double-referencing). Based on the SPR traces obtained from the on-rate and off-rate measurements, the on- and off-rate of the corresponding ankyrin repeat protein—FAP interaction was determined.
Dissociation constants (KD) were calculated from the estimated on- and off-rates using standard procedures known to the person skilled in the art. […] Table 1 provides the KD values of some selected ankyrin repeat proteins as examples.
As a reminder, the Kd is the concentration at which binding is half-saturated. As to B1, the Kd amounted to 3.4 nM.
For B2, the Kd turned out to be 2.78 nM.
Regarding B3, the Kd was found to be 0.744 nM.
Turning to B4, the Kd worked out at 0.15 nM.
Same read-out and setting: then B5, with 0.441 nM.
Regarding B6, the Kd was found to be 0.527 nM.
For B7, the Kd amounted to 1.47 nM.
In the case of B8, the Kd came out at 0.255 nM.
Take B9: the Kd is less than 0.01 nM.
As for B10, the Kd stood at 8.24 nM.
For the molecule B11, the Kd worked out at 0.885 nM.
For the molecule B12, the Kd was 0.007 nM.

In a further assay the target is T2, Human FAP expressed on the cell surface (WI38, CHO-FAP1.9, U87MG cells) (human, UniProt Q12884 1-760).
T2 construct: whole, on cells; Endogenous on WI38 and U87MG cells; from a human FAP cDNA (OriGene) in CHO-FAP1.9 cells; also called hFAP; FAP+ cells
T2 sequence (looked up): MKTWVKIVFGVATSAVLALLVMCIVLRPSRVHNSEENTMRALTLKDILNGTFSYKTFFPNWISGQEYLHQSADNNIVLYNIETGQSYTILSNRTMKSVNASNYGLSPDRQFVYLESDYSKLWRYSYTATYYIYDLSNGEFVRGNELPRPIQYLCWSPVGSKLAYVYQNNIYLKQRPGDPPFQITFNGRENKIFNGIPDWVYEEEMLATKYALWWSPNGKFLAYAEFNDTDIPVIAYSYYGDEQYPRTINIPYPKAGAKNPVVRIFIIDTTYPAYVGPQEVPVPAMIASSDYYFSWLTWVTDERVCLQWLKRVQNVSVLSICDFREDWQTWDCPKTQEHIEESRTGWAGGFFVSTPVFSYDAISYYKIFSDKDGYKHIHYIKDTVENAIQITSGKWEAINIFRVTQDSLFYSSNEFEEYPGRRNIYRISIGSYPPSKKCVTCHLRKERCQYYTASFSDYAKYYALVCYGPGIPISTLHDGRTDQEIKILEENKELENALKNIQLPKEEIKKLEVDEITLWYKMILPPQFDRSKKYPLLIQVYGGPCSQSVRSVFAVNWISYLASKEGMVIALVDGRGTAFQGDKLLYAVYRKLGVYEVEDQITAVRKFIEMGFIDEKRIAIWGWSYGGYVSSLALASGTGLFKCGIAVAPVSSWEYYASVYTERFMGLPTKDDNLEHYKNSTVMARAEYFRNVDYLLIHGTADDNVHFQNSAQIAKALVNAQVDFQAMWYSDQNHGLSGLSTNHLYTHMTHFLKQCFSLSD
As to the kind of experiment: FACS on FAP-expressing WI38 cells, Penta-His AF647 detection. As to the method: Using multi-well plates, 20,000 WI38 cells were added per well in 50 μl of PBS. 50 μl of appropriate dilutions (2× dilution steps) of ankyrin repeat protein was then added to the cells and incubated for 30 minutes on ice. After the ankyrin repeat protein-binding reaction, cells were washed twice with PBS. Direct immunofluorescent detection of the His-tagged ankyrin repeat proteins using Penta-His AF647 conjugate (QIAgen) and determination of live cells using LIVE/DEAD™ Fixable Green Dead Cell Stain Kit (ThermoFisher) were then performed together in one step. The Penta-His AF647 conjugate and the LIVE/DEAD™ Fixable Green dye were applied to the cells together in 1/200 (Penta-His) and 1/1000 (LID Fixable) final dilutions and incubated for 20-30 minutes on ice. After washing the cells with PBS, cells were re-suspended in 1× CellFix™ buffer (BD Biosciences) (10× stock was diluted 1/10 in water). The samples were incubated in CellFix™ buffer for 15-20 minutes at RT, then spun down at 400 g for 5 min. Supernatant was discarded and cells were re-suspended in 200 μl PBS and stored at 4° C. until acquisition and FACS analysis. Acquisition and FACS analysis, including the determination of median fluorescence intensity (MFI), were done within 5 days after staining using an AttuneNxT instrument. Binding curves were fitted by non-linear regression curve fitting using GraphPad Prism software (v 7.0.4).
EC₅₀ values were determined using standard procedures known to the person skilled in the art. […] Table 2 provides the EC₅₀ values of selected ankyrin repeat proteins as examples.
A word on the EC50: it is the concentration at which the effect is half-maximal. A low value points to a more potent agent. The molecule B1 yielded an EC50 of 1.22 nM.
On the same count and under the same terms, then B2, with 1.82 nM; and B3, with 1.45 nM; and B4, with 0.781 nM.
Same read-out and setting: then B5, with 0.664 nM.
Molecule B6 had a 50% effective concentration (EC50) of 0.918 nM.
Turning to B7, the midpoint of the response, the EC50, lay at 4.49 nM.
Consider B8, for which the midpoint of the response, the EC50, lay at 1.13 nM.
B9 displayed an EC50 of 0.33 nM.
B10: a half-maximal response (EC50) required 5.26 nM.
On the same count and under the same terms, then B11, with 2.19 nM; and B12, with 0.246 nM.
